Source: publication PMC4325325

Test system: RcsB
Test: EMSA

Substance “hmsC (hmsCDE/hmsD) promoter, wild-type RcsAAB box” has a K half of 800 ng per 16 µL.

lcrQ promoter was tested, and the K half was over 2000 ng per 16 µL.
